Our source for the Km and kcat values is publication doi:10.1101/2022.02.24.481826v2.

The test system of data set [1] is O=c1[nH]cnc2c1ncn2[C@H]1C[C@H](O)[C@@H](COP(=O)(O)OP(=O)(O)OP(=O)(O)O)O1. Kind of data set: EnzChek pyrophosphate release assay, Michaelis-Menten fit. Type of data set: biochemical, Arabidopsis thaliana. The following applies: dITP to dIMP.
Data set [2] has as its system O=P(O)(O)OP(=O)(O)OP(=O)(O)OC[C@H]1O[C@@H](n2cnc3c(O)ncnc32)[C@H](O)[C@@H]1O. Described as above. The following applies: ITP to IMP. Type of data set: biochemical, Arabidopsis thaliana.

As usually defined, the Km is the substrate concentration at which the rate is half of its maximum. By kcat is commonly meant the maximal rate divided by the concentration of active sites.

Regarding ITPA (Arabidopsis thaliana), in data set [1], the Km turned out to be 1.7 ± 0.3 µM and the kcat is 1.5 ± 0.17 s⁻¹. Moreover, in data set [2], the Km stood at 7.1 ± 1.2 µM and the turnover number (kcat) worked out at 1.9 ± 0.25 s⁻¹.
